From patent publication US20130123460A1 (SANWA KAGAKU KENKYUSHO, published 2013)
Where no end group is shown, it is not given here.

Biological target: endogenous VIP receptor of SUP-T1 cells (human)
Assay: cell-based or functional assay

cAMP Productivity in SUP-T1 Cells, Activity Intensity (%) relative to native VIP: 100%
Binder: HSDAVFTDNYTRLRKQMAVKKYLNSILN-NH2 [VIP(1-28)-NH2]
